Legend:
[1] = test system: HeLa Kyoto; experiment: melting temperature (median over replicates), in situ; higher = more thermally stable
[2] = test system: HeLa Kyoto; experiment: solubility in G1/S (NP-40 vs SDS abundance) (log2 ratio); higher = more soluble; conditions: cell cycle stage: G1/S
[3] = test system: HeLa Kyoto; experiment: thermal stability score vs G1/S (z-score of summed log2 fold changes over temperatures); higher = more thermally stable than in G1/S
[4] = test system: HeLa Kyoto; experiment: solubility change mitosis vs G1/S (difference of NP-40 vs SDS log2 ratios) (log2 ratio difference); higher = more soluble in mitosis
[5] = cell cycle stage: early G1 (4.5 h after nocodazole release)
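For melting temperature (median over replicates), in situ in this document: HeLa Kyoto cells synchronized by double thymidine or nocodazole block, proteins quantified by TMT10plex mass spectrometry, three independent biological replicates.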
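For solubility change mitosis vs G1/S (difference of NP-40 vs SDS log2 ratios) in this document: synchronized HeLa Kyoto cells (double thymidine block for G1/S, nocodazole release for mitosis), protein amounts in NP-40 versus SDS lysates quantified by mass spectrometry, three biological replicates.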
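For solubility in G1/S (NP-40 vs SDS abundance) in this document: HeLa Kyoto cells arrested at G1/S by double thymidine block, proteins quantified by TMT10plex mass spectrometry in mild NP-40 versus SDS extracts, three biological replicates.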
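For thermal stability score vs G1/S (z-score of summed log2 fold changes over temperatures) in this document: synchronized HeLa Kyoto cells, proteins quantified by TMT10plex mass spectrometry, three biological replicates, mitosis taken 0.5 h after nocodazole release, G1/S directly after double thymidine block.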

## MKLKEVDRTAMQAWSPAQNHPIYLATGTSAQQLDATFSTNASLEIFELDLSDPSLDMKSCATFSSSHRYHKLIWGPYKMDSKGDVSGVLIAGGENGNIILYDPSKIIAGDKEVVIAQNDKHTGPVRALDVNIFQTNLVASGANESEIYIWDLNNFATPMTPGAKTQPPEDISCIAWNRQVQHILASASPSGRATVWDLRKNEPIIKVSDHSNRMHCSGLAWHPDVATQMVLASEDDRLPVIQMWDLRFASSPLRVLENHARGILAIAWSMADPELLLSCGKDAKILCSNPNTGEVLYELPTNTQWCFDIQWCPRNPAVLSAASFDGRISVYSIMGGSTDGLRQKQVDKLSSSFGNLDPFGTGQPLPPLQIPQQTAQHSIVLPLKKPPKWIRRPVGASFSFGGKLVTFENVRMPSHQGAEQQQQQHHVFISQVVTEKEFLSRSDQLQQAVQSQGFINYCQKKIDASQTEFEKNVWSFLKVNFEDDSRGKYLELLGYRKEDLGKKIALALNKVDGANVALKDSDQVAQSDGEESPAAEEQLLGEHIKEEKEESEFLPSSGGTFNISVSGDIDGLITQALLTGNFESAVDLCLHDNRMADAIILAIAGGQELLARTQKKYFAKSQSKITRLITAVVMKNWKEIVESCDLKNWREALAAVLTYAKPDEFSALCDLLGTRLENEGDSLLQTQACLCYICAGNVEKLVACWTKAQDGSHPLSLQDLIEKVVILRKAVQLTQAMDTSTVGVLLAAKMSQYANLLAAQGSIAAALAFLPDNTNQPNIMQLRDRLCRAQGEPVAGHESPKIPYEKQQLPKGRPGPVAGHHQMPRVQTQQYYPHGENPPPPGFIMHGNVNPNAAGQLPTSPGHMHTQVPPYPQPQPYQPAQPYPFGTGGSAMYRPQQPVAPPTSNAYPNTPYISSASSYTGQSQLYAAQHQASSPTSSPATSFPPPPSSGASFQHGGPGAPPSSSAYALPPGTTGTLPAASELPASQRTGPQNGWNDPPALNRVPKKKKMPENFMPPVPITSPIMNPLGDPQSQMLQQQPSAPVPLSSQSSFPQPHLPGGQPFHGVQQPLGQTGMPPSFSKPNIEGAPGAPIGNTFQHVQSLPTKKITKKPIPDEHLILKTTFEDLIQRCLSSATDPQTKRKLDDASKRLEFLYDKLREQTLSPTITSGLHNIARSIETRNYSEGLTMHTHIVSTSNFSETSAFMPVLKVVLTQANKLGV [SEC31A]
[1]; cell cycle stage: G1/S
  melting temperature: 48.9 °C
[1]; cell cycle stage: mitosis
  melting temperature: 50 °C
[2]
  solubility in G1/S (log2): 0.0843
[3]; [5]
  thermal stability score: 1.55
[3]; cell cycle stage: mitosis
  thermal stability score: 4.43
[4]
  solubility change mitosis (log2): -0.144

## MAVVIRLLGLPFIAGPVDIRHFFTGLTIPDGGVHIIGGEIGEAFIIFATDEDARRAISRSGGFIKDSSVELFLSSKAEMQKTIEMKRTDRVGRGRPGSGTSGVDSLSNFIESVKEEASNSGYGSSINQDAGFHTNGTGHGNLRPRKTRPLKAENPYLFLRGLPYLVNEDDVRVFFSGLCVDGVIFLKHHDGRNNGDAIVKFASCVDASGGLKCHRSFMGSRFIEVMQGSEQQWIEFGGNAVKEGDVLRRSEEHSPPRGINDRHFRKRSHSKSPRRTRSRSPLGFYVHLKNLSLSIDERDLRNFFRGTDLTDEQIRFLYKDENRTRYAFVMFKTLKDYNTALSLHKTVLQYRPVHIDPISRKQMLKFIARYEKKRSGSLERDRPGHVSQKYSQEGNSGQKLCIYIRNFPFDVTKVEVQKFFADFLLAEDDIYLLYDDKGVGLGEALVKFKSEEQAMKAERLNRRRFLGTEVLLRLISEAQIQEFGVNFSVMSSEKMQARSQSRERGDHSHLFDSKDPPIYSVGAFENFRHQLEDLRQLDNFKHPQRDFRQPDRHPPEDFRHSSEDFRFPPEDFRHSPEDFRRPREEDFRRPSEEDFRRPWEEDFRRPPEDDFRHPREEDWRRPLEEDWRRPLEEDFRRSPTEDFRQLPEEDFRQPPEEDLRWLPEEDFRRPPEEDWRRPPEEDFRRPLQGEWRRPPEDDFRRPPEEDFRHSPEEDFRQSPQEHFRRPPQEHFRRPPPEHFRRPPPEHFRRPPPEHFRRPPPEHFRRPPPEHFRRPPPEHFRRPPQEHFRRPPQEHFRRSREEDFRHPPDEDFRGPPDEDFRHPPDEDFRSPQEEDFRCPSDEDFRQLPEEDLREAPEEDPRLPDNFRPPGEDFRSPPDDFRSHRPFVNFGRPEGGKFDFGKHNMGSFPEGRFMPDPKINCGSGRVTPIKIMNLPFKANVNEILDFFHGYRIIPDSVSIQYNEQGLPTGEAIVAMINYNEAMAAIKDLNDRPVGPRKVKLTLL [RBM12B]
[1]; cell cycle stage: G1/S
  melting temperature: 47.6 °C
[1]; cell cycle stage: mitosis
  melting temperature: 49.7 °C
[2]
  solubility in G1/S (log2): -0.972
[3]; [5]
  thermal stability score: 0.194
[3]; cell cycle stage: mitosis
  thermal stability score: 1.05
[4]
  solubility change mitosis (log2): 0.191

## MATASPAADGGRGRPWEGGLVSWPPAPPLTLPWTWMGPSWGQHPGHWGFPALTEPSASPAAGLGIFEVRRVLDASGCSMLAPLQTGAARFSSYLLSRARKVLGSHLFSPCGVPEFCSISTRKLAAHGFGASMAAMVSFPPQRYHYFLVLDFEATCDKPQIHPQEIIEFPILKLNGRTMEIESTFHMYVQPVVHPQLTPFCTELTGIIQAMVDGQPSLQQVLERVDEWMAKEGLLDPNVKSIFVTCGDWDLKVMLPGQCQYLGLPVADYFKQWINLKKAYSFAMGCWPKNGLLDMNKGLSLQHIGRPHSGIDDCKNIANIMKTLAYRGFIFKQTSKPF [ERI3]
[1]; cell cycle stage: mitosis
  melting temperature: 54.7 °C
[2]
  solubility in G1/S (log2): 0.0291
[3]; [5]
  thermal stability score: 0.384
[3]; cell cycle stage: mitosis
  thermal stability score: -0.0416
[4]
  solubility change mitosis (log2): -0.0837

## MTELETAMGMIIDVFSRYSGSEGSTQTLTKGELKVLMEKELPGFLQSGKDKDAVDKLLKDLDANGDAQVDFSEFIVFVAAITSACHKYFEKAGLK [S100P]
[1]; cell cycle stage: G1/S
  melting temperature: 54.1 °C
[1]; cell cycle stage: mitosis
  melting temperature: 51 °C
[2]
  solubility in G1/S (log2): -0.525
[3]; [5]
  thermal stability score: -0.94
[3]; cell cycle stage: mitosis
  thermal stability score: -5.53
[4]
  solubility change mitosis (log2): 0.32

## MAAALFVLLGFALLGTHGASGAAGFVQAPLSQQRWVGGSVELHCEAVGSPVPEIQWWFEGQGPNDTCSQLWDGARLDRVHIHATYHQHAASTISIDTLVEEDTGTYECRASNDPDRNHLTRAPRVKWVRAQAVVLVLEPGTVFTTVEDLGSKILLTCSLNDSATEVTGHRWLKGGVVLKEDALPGQKTEFKVDSDDQWGEYSCVFLPEPMGTANIQLHGPPRVKAVKSSEHINEGETAMLVCKSESVPPVTDWAWYKITDSEDKALMNGSESRFFVSSSQGRSELHIENLNMEADPGQYRCNGTSSKGSDQAIITLRVRSHLAALWPFLGIVAEVLVLVTIIFIYEKRRKPEDVLDDDDAGSAPLKSSGQHQNDKGKNVRQRNSS [BSG]
[1]; cell cycle stage: G1/S
  melting temperature: 59.1 °C
[1]; cell cycle stage: mitosis
  melting temperature: 59.8 °C
[2]
  solubility in G1/S (log2): 0.205
[3]; [5]
  thermal stability score: -0.849
[3]; cell cycle stage: mitosis
  thermal stability score: -2.75
[4]
  solubility change mitosis (log2): -0.00749

## MASCPDSDNSWVLAGSESLPVETLGPASRMDPESERALQAPHSPSKTDGKELAGTMDGEGTLFQTESPQSGSILTEETEVKGTLEGDVCGVEPPGPGDTVVQGDLQETTVVTGLGPDTQDLEGQSPPQSLPSTPKAAWIREEGRCSSSDDDTDVDMEGLRRRRGREAGPPQPMVPLAVENQAGGEGAGGELGISLNMCLLGALVLLGLGVLLFSGGLSESETGPMEEVERQVLPDPEVLEAVGDRQDGLREQLQAPVPPDSVPSLQNMGLLLDKLAKENQDIRLLQAQLQAQKEELQSLMHQPKGLEEENAQLRGALQQGEAFQRALESELQQLRARLQGLEADCVRGPDGVCLSGGRGPQGDKAIREQGPREQEPELSFLKQKEQLEAEAQALRQELERQRRLLGSVQQDLERSLQDASRGDPAHAGLAELGHRLAQKLQGLENWGQDPGVSANASKAWHQKSHFQNSREWSGKEKWWDGQRDRKAEHWKHKKEESGRERKKNWGGQEDREPAGRWKEGRPRVEESGSKKEGKRQGPKEPPRKSGSFHSSGEKQKQPRWREGTKDSHDPLPSWAELLRPKYRAPQGCSGVDECARQEGLTFFGTELAPVRQQELASLLRTYLARLPWAGQLTKELPLSPAFFGEDGIFRHDRLRFRDFVDALEDSLEEVAVQQTGDDDEVDDFEDFIFSHFFGDKALKKRSGKKDKHSQSPRAAGPREGHSHSHHHHHRG [PBXIP1]
[1]; cell cycle stage: G1/S
  melting temperature: 55.4 °C
[1]; cell cycle stage: mitosis
  melting temperature: 53.7 °C
[2]
  solubility in G1/S (log2): -0.166
[3]; [5]
  thermal stability score: -1.68
[3]; cell cycle stage: mitosis
  thermal stability score: 0.474
[4]
  solubility change mitosis (log2): -0.0444

## MAFVPVIPESYSHVLAEFESLDPLLSALRLDSSRLKCTSIAVSRKWLALGSSGGGLHLIQKEGWKHRLFLSHREGAISQVACCLHDDDYVAVATSQGLVVVWELNQERRGKPEQMYVSSEHKGRRVTALCWDTAILRVFVGDHAGKVSAIKLNTSKQAKAAAAFVMFPVQTITTVDSCVVQLDYLDGRLLISSLTRSFLCDTEREKFWKIGNKERDGEYGACFFPGRCSGGQQPLIYCARPGSRMWEVNFDGEVISTHQFKKLLSLPPLPVITLRSEPQYDHTAGSSQSLSFPKLLHLSEHCVLTWTERGIYIFIPQNVQVLLWSEVKDIQDVAVCRNELFCLHLNGKVSHLSLISVERCVERLLRRGLWNLAARTCCLFQNSVIASRARKTLTADKLEHLKSQLDHGTYNDLISQLEELILKFEPLDSACSSRRSSISSHESFSILDSGIYRIISSRRGSQSDEDSCSLHSQTLSEDERFKEFTSQQEEDLPDQCCGSHGNEDNVSHAPVMFETDKNETFLPFGIPLPFRSPSPLVSLQAVKESVSSFVRKTTEKIGTLHTSPDLKVRPELRGDEQSCEEDVSSDTCPKEEDTEEEKEVTSPPPEEDRFQELKVATAEAMTKLQDPLVLFESESLRMVLQEWLSHLEKTFAMKDFSGVSDTDNSSMKLNQDVLLVNESKKGILDEDNEKEKRDSLGNEESVDKTACECVRSPRESLDDLFQICSPCAIASGLRNDLAELTTLCLELNVLNSKIKSTSGHVDHTLQQYSPEILACQFLKKYFFLLNLKRAKESIKLSYSNSPSVWDTFIEGLKEMASSNPVYMEMEKGDLPTRLKLLDDEVPFDSPLLVVYATRLYEKFGESALRSLIKFFPSILPSDIIQLCHHHPAEFLAYLDSLVKSRPEDQRSSFLESLLQPESLRLDWLLLAVSLDAPPSTSTMDDEGYPRPHSHLLSWGYSQLILHLIKLPADFITKEKMTDICRSCGFWPGYLILCLELERRREAFTNIVYLNDMSLMEGDNGWIPETVEEWKLLLHLIQSKSTRPAPQESLNGSLSDGPSPINVENVALLLAKAMGPDRAWSLLQECGLALELSEKFTRTCDILRIAEKRQRALIQSMLEKCDRFLWSQQA [HPS5]
[1]; cell cycle stage: G1/S
  melting temperature: 48.6 °C
[1]; cell cycle stage: mitosis
  melting temperature: 49.5 °C
[2]
  solubility in G1/S (log2): -0.142
[3]; [5]
  thermal stability score: 1.53
[3]; cell cycle stage: mitosis
  thermal stability score: 1.55
[4]
  solubility change mitosis (log2): -0.108
